The record followed here is patent EP4714976A1.

Changes are numbered by the printed parent chain.

Experiment [1] addresses recombinant mouse FGFR2b (mouse) (UniProt P21803). The experiment is described as follows: BLI, antibody on AHC2 sensor. For orientation: BLI is a label-free optical method that tracks binding on a fibre tip over time.
Experiment [2] addresses extracellular domain of the FGFR2b protein (NP_075259.4) (UniProt P21802). Nature of the experiment: phage ELISA. A general note: An ELISA detects its analyte on a solid surface through an enzyme-linked reagent.

As usually defined, the Kd is the equilibrium constant for the complex coming apart. One may read the koff as a measure of how fast the partners let go of each other. Broadly, the kon is the rate constant with which the complex forms.

Chain of extracellular domain of the FGFR2b protein (NP_075259.4) (P21802 other isoform, or with tags, fused parts or gaps): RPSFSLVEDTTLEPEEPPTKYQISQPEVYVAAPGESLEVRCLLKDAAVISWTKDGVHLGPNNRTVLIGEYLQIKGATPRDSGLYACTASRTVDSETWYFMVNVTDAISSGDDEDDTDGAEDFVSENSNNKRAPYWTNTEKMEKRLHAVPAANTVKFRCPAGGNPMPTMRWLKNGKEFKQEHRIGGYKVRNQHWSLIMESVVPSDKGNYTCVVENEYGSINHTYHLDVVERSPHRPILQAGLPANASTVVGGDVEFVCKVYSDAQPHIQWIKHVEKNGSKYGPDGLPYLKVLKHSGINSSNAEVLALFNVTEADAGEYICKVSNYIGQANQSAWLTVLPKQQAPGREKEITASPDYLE
Chain of recombinant mouse FGFR2b (mouse) (P21803 22-377): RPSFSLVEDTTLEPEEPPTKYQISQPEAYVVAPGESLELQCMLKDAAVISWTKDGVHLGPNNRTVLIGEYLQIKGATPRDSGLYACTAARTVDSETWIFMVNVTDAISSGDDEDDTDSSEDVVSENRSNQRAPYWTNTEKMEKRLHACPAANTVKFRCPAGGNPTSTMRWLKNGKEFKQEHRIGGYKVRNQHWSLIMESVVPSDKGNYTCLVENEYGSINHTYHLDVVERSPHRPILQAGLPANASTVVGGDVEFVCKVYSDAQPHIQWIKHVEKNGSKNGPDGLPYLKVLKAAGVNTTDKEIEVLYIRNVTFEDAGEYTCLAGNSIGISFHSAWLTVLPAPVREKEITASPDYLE

B1: 3A8 scFv-Fc (Fc fusion)
chain: QVQLQQSGAELVKPGASVKMSCKASGYTFTIYNIHWVRQTPGQGLEWIGLIYPDNGDTSYNQKFKAKATLTADKSSSTAYMQLSSLTSEDSAVYYCARGGFDYWGQGTSLTVSSGGGGSGGGGSGGGGSDIVMTQSQKFMSTSVGDRVSVTCKASQNVGTNVAWYQQKPGQSPKALIYSASYRYSGVPDRFTGSGSGTDFTLTISNVQAEDLADYFCQQHYSTPYTFGGGTKLEMKESKYGPPCPPCPAPEAAGGPSVFLFPPKPKDTLMISRTPEVTCVVVDVSQEDPEVQFNWYVDGVEVHNAKTKPREEQFNSTYRVVSVLTVLHQDWLNGKEYKCKVSNKGLPSSIEKTISKAKGQPREPQVYTLPPSQEEMTKNQVSLTCLVKGFYPSDIAVEWESNGQPENNYKTTPPVLDSDGSFFLYSKLTVDKSRWQEGNVFSCSVMHEALHNHYTQKSLSLSLG
With B1, in experiment [1], the Kd was 7.17 nM, the dissociation rate constant (koff) is 0.000306 s⁻¹ and the kon was 42700 M⁻¹ s⁻¹.

B2: 3E7 scFv displayed on phage (scFv)
scFv: QVQLQQSGAELVKPGASVKMSCKASGYTFTIYNIHWVRQTPGQGLEWIGLIYPDNGDTSYNQKFKAKATLTADKSSSTAYMQLSSLTSEDSAVYYCARGGFDYWGQGTTLTVSSGGGGSGGGGSGGGGSNIVMTQSQKFMSTSVGDRVSVTCKASQNVGTNVAWYQQKPGQSPKALIYSASYRYSGVPDRFTGSGSGTDFTLTISGVQAEDLADYYCQQHYNTPYTFGGGTKLEIK
In experiment [2], B2 displayed an OD (450 nm) value of 1.88.

B3: 3F11 scFv displayed on phage (scFv)
scFv: QVQLQQSGAELVKPGASVKMSCKASGYTFAPYNIHWVRQTPGQGLEWIGLIYPDNGDTSYNQKFKAKATLTADKSSSTAYMQLSSLTSEDSAVYYCARGGFDYWGQGTSLTVSSGGGGSGGGGSGGGGSDIVMTQSQKFMSTSVGDRVSVTCKASQNVGTNVAWYQQKPGQSPKALIYSASYRYSGVPDRFTGSGSGTDFTLTISNVQSEDLAEYFCQQHYSTPFTFGSGTKLEIK
Consider B3, for which the OD (450 nm) value in experiment [2] stood at 2.

B4: 3A8 scFv displayed on phage (scFv)
scFv: B2 scFv with T109S, N130D, G206N, Y216F, N222S, I235M
B4 showed an OD (450 nm) value in experiment [2] of 2.22.

B5: 3E1 scFv displayed on phage (scFv)
scFv: QVQLQQPGAEVVKPGASVKMSCKASGYTFTDYYIHWVKQTPGQGLEWIGAIYPDNGDTSYNQKFKVKATLTADKSSSTAYMQLSSLTSEDSAVYYCARAFTYWGQGTLVTVSAGGGGSGGGGSGGGGSDILITQSPASLSASVGETVTITCGASENIYGALNWYQRKQGKSPQLLIYGATNLADGMSSRFSGSGSGRQYSLKISSLHPDDVATYYCQNVLSTPYTFGGGTKLEIK
In experiment [2], B5 registered an OD (450 nm) value of 2.17.

B6: 3A3 scFv displayed on phage (scFv)
scFv: QVQLQQSGAELVKPGASVKMSCKASGYTFTTYNIHWVRQTPGQGLEWIGLIYPDNGDTSYNQKFKAKATLTADKSSSTAYMHLSSLTSEDSAVYYCARGGFDYWGQGTTLTVSSGGGGSGGGGSGGGGSDIVMTQSHKFMSTSVGDRVSITCKASQDVNTDVSWYQQKPGQSPKLLIYSASYRYTGVPTRFTGSGSGTDFTFTISGVQAEDLADYYCQQHYNTPYTFGGGTRLEIK
B6 showed an OD (450 nm) value in experiment [2] of 2.33.

B7: 3H6 scFv displayed on phage (scFv)
scFv: QVQLQQSGAELVKPGASVKMSCKASGYTFSFYNIHWVRQTPGQGLEWIGLIYPDNGDTSYNQKFKAKATLTADKSSSTAYMQLSSLTSEDSAVYYCARGGFDYWGQGTTLTVSSGGGGSGGGGSGGGGSDIQMTQSPASLSASVGETVTITCRASENIYSYLAWYQQKQGKSPQLLVYNAKTLAEGVPSRFSGSGSGTQFSLKINSLQPEDFGSYYCQHHYGTPYTFGGGTKLEMK
In experiment [2], B7 registered an OD (450 nm) value of 2.29.

B8: 3D7 scFv displayed on phage (scFv)
scFv: QVQLQQSGAELVKPGASVKMSCKASGYTFSFYNMHWVKRTPGRGLEWIGLIYPDNGDTSYNQKFKGKATLTADTSSSTAYMQLSSLTSEDSAVYYCARGGLDYWGQGTSLTVSSGGGGSGGGGSGGGGSEIVLTQSPASLAVSLGQRATISCKASQSVDYDGDSYMNWYQQKPGQPPKLLIYGISNRFSGVPDRFSGSGSGTDFTLKISTIKPEDLGMYYCLQGTHQPYTFGGGTKLEIK
In turn, B8 yielded an OD (450 nm) value in experiment [2] of 2.2.

B9: 1B8 scFv displayed on phage (scFv)
scFv: QIQLQQSGAELVKPGASVKMSCKASGYTFASYNLHWVKQTPGQGLEWIGLIYPENGDTSYNQKFKGKATLTADTSSTTAYIQLSSLTSEDSAVYFCARGGFDYWGQGTSLTVSSGGGGSGGGGSGGGGSDIKMTQSPASLSASVGETVTITCGASENIYGALNWYQRKQGKSPQLLIYGATNLADGMSSRFSGSGSGRQYSLKISSLHPDDVATYYCQNVLSTPYTFGGGTKLEIK
B9 yielded an OD (450 nm) value in experiment [2] of 2.65.

B10: 1A3 scFv displayed on phage (scFv)
scFv: B9 scFv with I2V, S7P, T74K, T77S, S109T, S114Q, K132Q
In turn, B10 returned an OD (450 nm) value in experiment [2] of 2.67.

B11: 3F5 scFv displayed on phage (scFv)
scFv: EIQLQQSGAELVKPGASVKMSCKASGYTFRYYNMHWVKRTPGQGLEWIGLIYPDNGDTSYNQKFKGKATLTADTSSSTAYMQLSSLTSEDSAVYYCARGGLDYWGQGTTLTVSSGGGGSGGGGSGGGGSDIVLTQSPASLSASVGETVTITCGASENIYGALNWYQRKQGKSPQLLIYGATNLADGMSSRFSGSGSGRQYSLKISSLHPDDVATYYCQNVLSTPYTFGGGTKLEIK
For the molecule B11, the OD (450 nm) value in experiment [2] came to 1.94.

B12: 3B4 scFv displayed on phage (scFv)
scFv: B11 scFv with I2V, E10D, R30S, K38R, V132Q, L133M, T134I, L140M, I235M
In experiment [2], B12 returned an OD (450 nm) value of 2.47.

B13: 1D7 scFv displayed on phage (scFv)
scFv: QIQLQQSGAELVKPGASVKMSCKASGYTFRYYNMHWVKRTPGQGLEWIGLIYPDNGDTSYNQKFKGKATLTADTSSSTAYMQLSSLTSEDSAVYYCARGGLDYWGQGTSLTVSSGGGGSGGGGSGGGGSDIQMTQSPSSMSASLGDRITITCQATQDIVKNLNWYQQKPGKPPSFLIYYATELAEGVPSRFSGSGSGSDYSLTISNLESEDFADYYCLQFYEFPLTFGAGTKLELK
B13 displayed an OD (450 nm) value in experiment [2] of 2.14.

B14: 3E2 scFv displayed on phage (scFv)
scFv: EIQLQQSGAELVKPGASVKMSCKASGYTFSFYNMHWVKRTPGQGLEWIGLIYPDNGDTSYNQKFKGKATLTADTSSSTAYMQLSSLTSEDSAVYYCARGGLDYWGQGTSLTVSSGGGGSGGGGSGGGGSNIVMTQSQKFMSTSVGDRVSVTCKASQNVGTNVAWYQQKPGQSPKALIYSASYRYTGVPDRFTGSGSGTDFTFTISSVQAEDLAVYYCQQHYSTPYTFGGGTKLEIK
B14 registered an OD (450 nm) value in experiment [2] of 1.87.

B15: 3E3 scFv displayed on phage (scFv)
scFv: QVQLQQPGAVLVKPGASVRMSCKASGYTFPYYNVHWVKRTPGQGLEWIGLIYPDNGDTSYNQKFTGKATLTADTSSSTAYMQLSSLTSEDSAVYYCARGGLDYWGQGTTLTVSAGGGGSGGGGSGGGGSDVQITQSPASLSASVGETVTITCGASENIYGALNWYQRKQGKSPQLLIYGATNLADGMSSRFSGSGSGRQYSLKISSLHPDDVATYYCQNVLSTPYTFGGGTKLEIK
On to B15, for which the OD (450 nm) value in experiment [2] is 2.28.

B16: 3F10 scFv displayed on phage (scFv)
scFv: EVQLQQSGAELVKPGASVKMSCKASGYTFSFYNIHWVRQTPGQGLEWIGLIYPDNGDTSYNQKFKAKATLTADKSSSTAYMQLSSLTSEDSAVYYCARGGFDYWGQGTTLTVSSGGGGSGGGGSGGGGSDVLMTQSPASLSASVGETVTITCGASENIYGALNWYQRKQGKSPQLLIYGATNLADGMSSRFSGSGSGRQYSLKISSLHPDDVATYYCQNVLSTPYTFGGGTKLEIK
In turn, B16 registered an OD (450 nm) value in experiment [2] of 1.85.

B17: 2B2 scFv displayed on phage (scFv)
scFv: QLQLQQSGAELVKPGASVKMSCKASGYTFASYNLHWVKQTPGQGLEWIGLIYPENGDTSYNQKFKDKATLTADKSSTTAYIQLSSLASEDSAVYFCARGGFDYWGQGTTLTVSSGGGGSGGGGSGGGGSDIVMTQSQKFMSTSVGDRVSVTCKASQNVGTNVAWYQQKPGQSPKALIYSASYRYSGVPDRFTGSGSGTDYTLTISSVQAEDLALYYCQQHYSTPYTFGGGTKLELK
Molecule B17 registered an OD (450 nm) value in experiment [2] of 2.38.

B18: 3G10 scFv displayed on phage (scFv)
scFv: EVQLQQSGPELVKPGASVKMSCKASGYTFATYNMHWVKQTTGQGLEWIGAIYPDNGDTFYNRKFKDKATLTADKSSTTAYMQLSSLTSEDSAVYYCARGDFAYWGQGTLVTVSAGGGGSGGGGSGGGGSDVLMTQSPASLSASVGETVTITCGASENIYGALNWYQRKQGKSPQLLIYGATNLADGMSSRFSGSGSGRQYSLKISSLHPDDVATYYCQNVLSTPYTFGGGTKLEMK
The molecule B18 showed an OD (450 nm) value in experiment [2] of 1.95.

B19: 2B1 scFv displayed on phage (scFv)
scFv: EVQLQQSGAELVKPGASVKMSCKASGYTFASYNLHWVKQTPGQGLEWIGLIYPENGDTSYNQKFKGKATLTADKSSSTAYIQLSSLTSEDSAVYFCARGGFDYWGQGTSLTVSSGGGGSGGGGSGGGGSDIQMIQSPASLSVSVGETVTITCRASENIYSNLAWYQQKQGKSPQLLVYNAKTLADGVPSRFSGSGSGTQYSLKINSLQPEDFGSYYCQHFWSTPYTFGGGTKLEIK
For B19, the OD (450 nm) value in experiment [2] turned out to be 2.33.

B20: 1G6 scFv displayed on phage (scFv)
scFv: EIQLQQSGAELVKPGASVKMSCKASGYTFRYYNMHWVKRTPGQGLEWIGLIYPDNGDTSYNQKFKGKATLTADTSSSTAYMQLSSLTSEDSAVYYCARGGLDYWGQGTSLTVSSGGGGSGGGGSGGGGSNIVMTQSHKFMSTSVGDRVSITCKASQDVNTDVAWYQQKPGQSPKLLIYSASYRYTGVPTRFTGSGSGTDFTFTISGVQAEDLADYYCQQHYNTPYTFGGGTKLELK
For the molecule B20, in experiment [2], the OD (450 nm) value is 2.44.
